The test system of one data set is neutrophils. Put plainly: Anti-inflammatory potential of SAA on neutrophils (oxidative burst, migration, myeloperoxidase release, O2-release). The data set is classed as cell-based. The procedure:
The anti-inflammatory potential of SAA on neutrophils has been confirmed for SAA at reported serum concentrations. […] However, at higher concentrations of more than 50 μg/ml, SAA was stimulating. In addition, O2-release was inhibited up to 0.1 μg/ml, but the O2-release was increased above that. Thus, SAA plays a dual role, it down-regulates inflammatory processes in lower concentration but, during the full APR, the action of SAA can be promoting.

Data set [1] concerns human neutrophils. As to the kind of experiment: FMLP-induced oxidative burst of normal human neutrophils. The data set is classed as cell-based. The following applies: SAA at 0.1 μg/ml and 1.0 μg/ml. From the text:
(§1) This was the first time that a function of SAA was blocked by a monoclonal AA antibody. The monoclonal antibody mc29 used probably also blocks the laminin-like domain (aa 29-33) and may also be participating partially with the RGD-like domain (aa 39-41). In addition, human neutrophils were exposed to full human APS at different temperatures. […] This indicated an irreversible structural change of SAA (or its fragments) during high fever, which is blocking SAA's return to the reversible binding to HDL. (This febrile temperature-that induced the aggregation of AA-antigenic proteins has also been noticed in vitro and documented in FIG. 2 at 38° C. and 40° C.). The possibly unfavorable consequences of these aggregates in humans or animals are unknown today.

Data set [2] has as its system human neutrophils. As to the kind of experiment: Binding of SAA to human neutrophils.
Excerpt: as §1

The nature of data set [3]: Immunodiffusion of SAA-HDL containing acute phase serum with polyclonal anti-AA at different temperatures. The data set is classed as physicochemical. The following applies: added to normal human serum. The method, then:
Immunodiffusion (ID) at different temperatures. The ID was performed in 1.5% Seakem Agarose in 0.03 M barbital buffer, pH 8.6 with the same reagents in each of the three plates a 6 wells (A-C). Top and bottom well contained AA (0.1 mg/ml), the middle well contained polyclonal rabbit anti-AA antibodies undiluted and the 4 side wells contained elevated SAA-HDL containing APS from 4 patients at 1/10 diluted. Plate A after diffusion over night at room temperature, plate B at 4° C. over night and plate C first at 4° over night as plate B at 4° C. followed by room temperature for 6 hs similar to plate A.
In FIG. 1A, one recognizes a line of identity of AA with all four patients' sera as if the SAA (probably SAA1 and SAA2) reaction were done with pure SAA. At 4° C. in FIG. 1B, however, there is no reaction with SAA-HDL in serum. This is due to the hiding of the AA-reactive parts of SAA through HDL. […] Therefore, the separation of SAA from HDL is temperature-dependent.

The mark [4] stands for this setting: SAA at reported serum concentrations.

For the molecule “83-104: SAA peptide aa 83-104 (NEWGRSGKDPNHFRPAGLPEKY; UniProt P0DJI8 101-122, looked up, fragment)”, in the data set on neutrophils, the “contribution of SAA peptides to the inhibitory effect on neutrophils” value is on record as “contributed to this inhibitory effect”.

On to “aa 1-14: SAA peptide aa 1-14 (RSFFSFLGEAFDGA; UniProt P0DJI8 19-32, looked up, fragment)”, for which, in the data set with neutrophils, the “contribution of SAA peptides to the inhibitory effect on neutrophils” value is “contributed to this inhibitory effect”.

B1: SAA: serum amyloid A protein, 12.5 kDa acute phase protein isolated from human serum (protein)
chain: RSFFSFLGEAFDGARDMWRAYSDMREANYIGSDKYFHARGNYDAAKRGPGGAWAAEVITDARENIQRFFGHGAEDS
In the case of B1, the “FMLP-induced oxidative burst of normal human neutrophils” value in the data set with human neutrophils [1] is reported as “reduced, concentration-dependently”. For the same molecule, in the data set on neutrophils (setting [4]), the migration of neutrophils entry is “inhibited”, the neutrophil myeloperoxidase release entry was “inhibited” and the “oxidative burst of neutrophils” value was “inhibited”. The O2-release entry in the data set with neutrophils (above 0.1 μg/ml) is on record as “increased”. Moreover, the “effect on neutrophils at higher concentrations” value with neutrophils (more than 50 μg/ml) is recorded as “stimulating”. Besides, in the data set on neutrophils (up to 0.1 μg/ml), the O2-release entry is “inhibited”. The “binding with human neutrophils” value in the data set with human neutrophils [2] is listed as “Strong binding”.

B2: recombinant SAA2: recombinant serum amyloid A2 protein (SEQ ID NO: 2: human SAA2) (protein, UniProt P0DJI9 19-122, looked up)
Serum amyloid A-2 protein: RSFFSFLGEAFDGARDMWRAYSDMREANYIGSDKYFHARGNYDAAKRGPGGAWAAEVISNARENIQRLTGRGAEDSLADQAANKWGRSGRDPNHFRPAGLPEKY
Take B2: the “temperature-dependent immunodiffusion behavior as in FIG. 1” value in data set [3] is “repeat exactly that behavior”. Besides, the “binding with human neutrophils” value in the data set with human neutrophils [2] is reported as “Strong binding”.
